# Assay results: article PMC5352318, “Carcinoma-risk variant of EBNA1 deregulates Epstein-Barr Virus episomal latency”
# T1: B95-8 EBNA1 DBD (Epstein-Barr virus (strain B95-8)) (UniProt P03211)
# T1 sequence: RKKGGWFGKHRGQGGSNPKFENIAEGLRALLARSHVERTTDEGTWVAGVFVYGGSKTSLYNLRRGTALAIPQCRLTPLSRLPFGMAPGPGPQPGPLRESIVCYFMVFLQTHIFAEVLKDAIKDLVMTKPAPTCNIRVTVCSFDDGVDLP
# B1: FR single EBNA1 dimer site (SPR) (dsDNA)
# DNA 1: GGGAAGCATATGCTTCCC
# DNA 2: GGGAAGCATATGCTTCCC
# Legend:
# [1] = molecular target: T1, B95-8 EBNA1 DBD (Epstein-Barr virus (strain B95-8)); assay: SPR; settings: SPR (Biacore T200, SA chip): 20 mM Tris pH 8.0, 250 mM NaCl, 5 mM beta-mercaptoethanol, 1 mM MgCl2, EBNA1 0-200 nM; temperature not stated. Crystals: 0.2 M …
# B95-8 EBNA1 DBD = B95-8 EBNA1 DBD (Epstein-Barr virus (strain B95-8), UniProt P03211 459-607); assay: SPR; 1 mM Mg2+; range given for both proteins, exact value in Fig 2B; SPR (Biacore T200, SA chip): 20 mM Tris pH 8.0, 250 mM NaCl, 5 mM beta-mercaptoethanol, 1 mM MgCl2, EBNA1 0-200 nM; temperature not stated. Crystals: 0.2 M ammonium acetate, 0.15 M Mg acetate, 0.05 M Hepes pH 7.0, 5% PEG 4000; settings: protein: recombinant; tags: His6-SUMO tag, cleaved; chain copies: 2; label: 5' biotin; self-complementary 18-mer
Molecule,Kd [1] [nM],Kd (B95-8 EBNA1 DBD) [nM]
CGATAGCATATGCTTCCCGTTGGGTAACATATGCTATTG (double strand) [DS 3+4 (two EBNA1 dimer sites)],11.9,
B1,,~16.5
